One may read the EC50 as the concentration at which the effect is half-maximal. A lower EC50 goes with a more potent agent.

The values that follow come from patent US20260000752A1.

The experiment has as its target human IgG (used as a control) (human). Kind of experiment: ELISA pH 7.4; human IgG control coated, biotinylated FcRn titrated, streptavidin-HRP.

In turn, “recombinant human FcRn, biotinylated (R&D Systems) (from UniProt P55899 24-297; P61769 21-119) (receptor)” came in with an EC50 of 0.0292 µg/mL.
